Results published in PMC6270119, “Application of Reductive ^13C-Methylation of Lysines to Enhance the Sensitivity of Conventional NMR Methods” (Molecules, 2013).

How the values were obtained:
[1] = target: reductively methylated calmodulin (UniProt P0DP23); assay: NMR titration; 1H-13C HSQC of 1 µM reductively methylated CaM with 0, 0.5, 1 and 1.5 µM FM-HVR (peptide not aggregated); 25 °C; 50 mM Tris-citrate pH 6.5, 50 mM NaCl, 5 mM MgCl2, 10 mM β-mercaptoethanol, 10 mM CaCl2
[2] = target: reductively methylated calmodulin (UniProt P0DP23); assay: NMR titration; 1H-13C HSQC of 70 µM reductively methylated CaM with FM-HVR at 0:1, 1:1, 2:1 and 3:1 molar ratios (aggregated FM-HVR); 25 °C; 50 mM Tris-citrate pH 6.5, 50 mM NaCl, 5 mM MgCl2, 10 mM β-mercaptoethanol, 10 mM CaCl2
[3] = target: fully post-translationally modified (farnesylated and methylated) hypervariable region peptide of K-Ras4B (human); assay: pyrene fluorescence (critical aggregation concentration); peptide at different concentrations with 2 µM pyrene in PBS; excitation scans 315-360 nm, emission 393 nm; ratio I334/I337 against the logarithm of the peptide concentration
[4] = Dynamic light scattering particle size analysis; type: physicochemical; conditions: DLS, 0.25 mM (250 μM) FM-HVR in PBS, room temperature
From the text: This roughly corresponds to the monomeric form of peptide. However, upon introduction of farnesylation and methylation the hydrodynamic radius of the peptide increased to 8.15 ± 0.46 nm at a four times lower concentration as shown in Figure 2B. This hydrodynamic radius corresponded to a particle of 471.92 ± 63.75 kDa in size. Observation of higher order assemblies of FM-HVR allowed us to conclude that post-translational modifications in K-Ras can lead to aggregation through hydrophobic interactions.
For studying aggregation of peptides, dynamic light scattering experiments were performed on a DynaPro-801 molecular sizing instrument (Wyatt Technology Europe, Dernbach, Germany). The peptide samples were dialyzed against PBS. The sample volume of 250 μL was used for the experiments. […] Samples were centrifuged at 12000 rpm for 10 min before experiments. Analysis of the data was carried out using Dynamics software.

| FM-HVR to CaM titration ratio at saturation (FM-HVR per CaM) [1] | FM-HVR to CaM titration ratio at saturation (FM-HVR per CaM) [2] | critical aggregation concentration [3] | Compound | hydrodynamic radius [4] | particle mass corresponding to hydrodynamic radius [4] |
| --- | --- | --- | --- | --- | --- |
| 1 | 2 | > 10 µM | fully post-translationally modified (farnesylated and methylated) hypervariable region peptide of K-Ras4B | – | – |
| – | – | – | COC(=O)[C@H](CSC/C=C(\C)CC/C=C(\C)CCC=C(C)C)NC(=O)C1CCC(CN2C(=O)CC(SC[C@H](NC(=O)[C@H](CCCCN)NC(=O)[C@H](CO)NC(=O)[C@H](CCCCN)NC(=O)[C@H](CCCCN)NC(=O)[C@H](CCCCN)NC(=O)[C@H](CCCCN)NC(=O)[C@H](CCCCN)NC(=O)[C@H](CCCCN)NC(=O)CNC(=O)[C@H](CC(=O)O)NC(=O)[C@H](CCCCN)NC(=O)[C@H](CO)NC(=O)[C@H](CCSC)NC(=O)[C@H](CCCCN)NC(=O)[C@H](CCC(=O)O)NC(=O)[C@@H](N)CCCCN)C(=O)O)C2=O)CC1 (some centres unmarked) [FM-HVR] | 8.15 ± 0.46 nm | 471.92 ± 63.75 kDa |
